Data reported in patent US20250155457A1 (DIAGNOSTICA STAGO, published 2025).

How the values were obtained:
Assay in all cases: cell-based or functional assay
[1] = target: T1, exogenous platelet factor 4 (PF4), heparin-modified (PF4/heparin complex) (UniProt P02776 32-101)
T1 sequence (looked up): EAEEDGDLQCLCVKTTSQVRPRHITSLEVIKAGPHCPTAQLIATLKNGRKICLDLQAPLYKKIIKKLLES

[2] = target: T1, exogenous platelet factor 4 (PF4), …; remark: listed apart in the source
[3] = target: T1, exogenous platelet factor 4 (PF4), …; remark: listed apart in the source
[4] = target: T1, exogenous platelet factor 4 (PF4), …; remark: listed apart in the source
[5] = target: T1, exogenous platelet factor 4 (PF4), …; remark: listed apart in the source
[6] = target: T1, exogenous platelet factor 4 (PF4), …; remark: listed apart in the source
[7] = target: T1, exogenous platelet factor 4 (PF4), …; remark: listed apart in the source
[8] = target: T1, exogenous platelet factor 4 (PF4), …; remark: listed apart in the source
[9] = target: T1, exogenous platelet factor 4 (PF4), …; remark: listed apart in the source
[10] = target: T1, exogenous platelet factor 4 (PF4), …; remark: listed apart in the source
[11] = target: T1, exogenous platelet factor 4 (PF4), …; remark: listed apart in the source
[12] = target: T1, exogenous platelet factor 4 (PF4), …; remark: listed apart in the source

B1: chimeric monoclonal antibody 5B9 (antibody, V domains shown)
VH: DVQLQESGPDLVKPSQSLSLTCTVTGYSITSGYSWHWIRQFPGNKLEWMGYIHYSGSTNYNPSLKSRISITRDTSKNQFFLQLNSVTTEDTATYYCARELRLRYFDVWGAGTTVTVSS
VL: EIVLTQSPTTMAASPGEKITITCSASSSISSNYLHWYQQKPGFSPKLLIYRTSNLASGVPARFSGSGSGTSYSLTIGTMEAEDVATYYCQQGSSIPLTFGAGTKLELKR
**Q.** Which results are given for B1?
**A.** VS series activation ratio, CD62P labeling, patient 1 whole blood (max % x MFI with 5B9 + PF4 + low heparin over basal) [1]: 300 ratio; VS series inhibition ratio, CD62P labeling, patient 1 whole blood (heparin 100 IU/ml) [1]: 0.88 ratio; VS series activation ratio, CD62P labeling, patient 2 whole blood [2]: 13.2 ratio; VS series inhibition ratio, CD62P labeling, patient 2 whole blood (heparin 100 IU/ml) [2]: 0.9 ratio; VS series activation ratio, Annexin V labeling, patient 1 whole blood [3]: 95.9 ratio; VS series inhibition ratio, Annexin V labeling, patient 1 whole blood (heparin 100 IU/ml) [3]: 0.85 ratio; VS series activation ratio, Annexin V labeling, patient 2 whole blood [4]: 11.3 ratio; VS series inhibition ratio, Annexin V labeling, patient 2 whole blood (heparin 100 IU/ml) [4]: 0.65 ratio; VS series activation ratio, CD62P labeling, patient 3 whole blood [5]: 94.2 ratio; VS series inhibition ratio, CD62P labeling, patient 3 whole blood (heparin 100 IU/ml) [5]: 0.57 ratio; VS series activation ratio, CD62P labeling, patient 4 whole blood [6]: 281 ratio; VS series inhibition ratio, CD62P labeling, patient 4 whole blood (heparin 100 IU/ml) [6]: 0.94 ratio; VS series activation ratio, CD62P labeling, patient 5 whole blood [7]: 52.7 ratio; VS series inhibition ratio, CD62P labeling, patient 5 whole blood (heparin 100 IU/ml) [7]: 0.84 ratio; VS series activation ratio, CD62P labeling, patient 6 whole blood [8]: 117 ratio; VS series inhibition ratio, CD62P labeling, patient 6 whole blood (heparin 100 IU/ml) [8]: 0.94 ratio; VS series activation ratio, Annexin V labeling, patient 3 whole blood [9]: 21.7 ratio; VS series inhibition ratio, Annexin V labeling, patient 3 whole blood (heparin 100 IU/ml) [9]: 0.74 ratio; VS series activation ratio, Annexin V labeling, patient 4 whole blood [10]: 412 ratio; VS series inhibition ratio, Annexin V labeling, patient 4 whole blood (heparin 100 IU/ml) [10]: 0.95 ratio; VS series activation ratio, Annexin V labeling, patient 5 whole blood [11]: 8.6 ratio; VS series inhibition ratio, Annexin V labeling, patient 5 whole blood (heparin 100 IU/ml) [11]: 0.61 ratio; VS series activation ratio, Annexin V labeling, patient 6 whole blood [12]: 26.5 ratio; VS series inhibition ratio, Annexin V labeling, patient 6 whole blood (heparin 100 IU/ml) [12]: 0.75 ratio
